Test results: the RNAGym collection of RNA variant scans (doi:10.1093/nar/gkz1192)

B1: CPEB3 Ribozyme (parent)
chain: UAACAGGGGGCCACAGCAGAAGCGUUCACGUCGCAGCCCCUGUCAGAUUCUGGUGAAUCUGCGAAUUCUGCUGUAUAUCUC

Variants of: B1
Test: self-cleavage, relative activity (ratio to wild type); higher = more cleavage; in vitro, sequencing
Summary of the method: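 After error-prone PCR and barcoding, CPEB3 ribozyme mutant libraries were transcribed with T7 RNA polymerase at 37°C for 5 hours, then given 15 min with DNase I before an EDTA stop, and they cleaved during both steps. Reverse transcription with template switching preceded Illumina sequencing. Relative activity divides a variant's cleaved/total read fraction by the unmutated ribozyme's. At least 5 reads were required per variant, and three batches were averaged.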

| Variant | self-cleavage |
| --- | --- |
| A5U A64U | 0.44 |
| A5U A64G | 1.03 |
| A5G G30U | 0.11 |
| A5G G30A | 0.51 |
| A5G A77G | 0.71 |
| A5G A77U | 0.78 |
| A5C A45U | 0.59 |
| A5C A45G | 0.7 |
| A5U C32U | 0.31 |
| A5U C32A | 0.32 |
| A5U C32G | 0.16 |
| A5C G8C | 0.36 |
| A5C G8A | 0.46 |
| A5C A64U | 1 |
| A5C A64G | 1 |
| A5G C38G | 0.37 |
| A5G C38A | 0.44 |
| A5G C38U | 0.46 |
| A5G C32A | 0.28 |
| A5G C32U | 0.48 |
| A5G C32G | 0.39 |

| Variant | self-cleavage |
| --- | --- |
| A5G G19A | 0.53 |
| A5G G19C | 0.41 |
| A5G G19U | 0.45 |
| A5C G10A | 0.09 |
| A5G C79U | 0.92 |
| A5G C79A | 1.01 |
| A5U C50A | 1.01 |
| A5G G33C | 0.38 |
| A5G G33U | 0.43 |
| A5G G33A | 0.24 |
| C4U U80C | 1.19 |
| C4U U67C | 0.42 |
| C4U U67A | 0.76 |
| A5C C50A | 0.8 |
| A5C G63C | 0.95 |
| A5C G63U | 0.91 |
| A5C A15G | 0.96 |
| A5C A15C | 0.81 |
| A5C A15U | 0.99 |
| A5C G30U | 0.24 |
| A5C G30A | 0.19 |

| Variant | self-cleavage |
| --- | --- |
| A5G G70C | 0.25 |
| A5G G70A | 0.32 |
| A5G G70U | 0.41 |
| A5G U78A | 0.88 |
| A5G U78C | 0.63 |
| A5G U78G | 0.91 |
| A5C A57G | 0.9 |
| A5C A57C | 0.52 |
| C4U U78A | 0.9 |
| C4U U78C | 1.14 |
| A5G U48C | 0.57 |
| A5G U48A | 0.45 |
| A5G U48G | 0.1 |
| A5U C39U | 0.95 |
| A5G U76G | 0.6 |
| A5G U76C | 0.76 |
| A5G U76A | 0.85 |
| A5G U58A | 0.24 |
| A5G U58C | 0.43 |
| A5U A13C | 1.15 |
| A5U A13G | 1.01 |

| Variant | self-cleavage |
| --- | --- |
| A5U A13U | 1.16 |
| A5G G6U | 0.23 |
| A5G G6A | 0.29 |
| A5C G9U | 0.52 |
| A5C G9A | 0.41 |
| A5G G16U | 0.54 |
| A5G G16A | 0.57 |
| A5C G36A | 0.31 |
| A5G A56G | 0.39 |
| A5G A56U | 0.43 |
| A5C C68G | 0.23 |
| A5C U60A | 0.64 |
| A5C U60C | 0.64 |
| A5C U60G | 0.67 |
| A5U A20G | 0.91 |
| A5U A20C | 0.49 |
| A5G U72C | 0.77 |
| A5G U72A | 0.48 |
| A5G U72G | 0.79 |
| A5C C37U | 0.76 |
| A5C C37G | 0.87 |
